Measurements: patent publication US20240269203A1 (Janssen / Centocor, published 2024)

Legend:
[1] = biological target: human CD40 receptor, stably expressed on HEK293 (HEK-Blue) reporter cells (human) (UniProt P25942)
mouse CTLA-4 = biological target: T1, mouse CTLA-4 (mouse, UniProt P09793 36-161); experiment: ELISA on immobilized mCTLA-4; supernatant of Vero cells infected with mJP-OV-2 (FIG. 33)
T1 construct: also called mCTLA-4

Molecule	EC50 (read off the curve), CD40 reporter cells, OD 650 nM [1] [ng/mL]	binding result (mouse CTLA-4)
hCD40ag (human CD40 agonist payload; Fc-less trimer of single-chain CD40L ectodomain trimer bundles with T4 fibritin trimerization motif), purified (ligand)	3	
mαCTLA-4 (mouse surrogate anti-CTLA-4 antagonist payload; anti-CTLA-4 VHH fused to the heavy chain of mouse IgG2a Fc), expressed from mJP-OV-2 (Fc fusion, also called Mouse CTLA-4 antagonist payload; OVTSB24) QVQLVESGGGLAQPGGSLRLSCAASGSTISSVAVGWYRQTPGNQREWVATSSTSSTTATYADSVKGRFTISRDNAKNTIYLQMNSLKPEDTAVYYCKTGLTNWGRGTQVTVSSEPRGPTIKPCPPCKCPAPNLLGGPSVFIFPPKIKDVLMISLSPIVTCVVVDVSEDDPDVQISWFVNNVEVHTAQTQTHREDYNSTLRVVSALPIQHQDWMSGKEFKCKVNNKDLPAPIERTISKPKGSVRAPQVYVLPPPEEEMTKKQVTLTCMVTDFMPEDIYVEWTNNGKTELNYKNTEPVLDSDGSYFMYSKLRVEKKNWVERNSYSCSVVHEGLHNHHTTKSFSRTPGK		binds
